From US20100099619A1 come the findings set out here.

This assay deals with neuropeptide Y4 receptor. Briefly: competition vs [125I]-hPP, Y4-transfected CHO-K1 membranes.
Chain of neuropeptide Y4 receptor (P50391 whole entry): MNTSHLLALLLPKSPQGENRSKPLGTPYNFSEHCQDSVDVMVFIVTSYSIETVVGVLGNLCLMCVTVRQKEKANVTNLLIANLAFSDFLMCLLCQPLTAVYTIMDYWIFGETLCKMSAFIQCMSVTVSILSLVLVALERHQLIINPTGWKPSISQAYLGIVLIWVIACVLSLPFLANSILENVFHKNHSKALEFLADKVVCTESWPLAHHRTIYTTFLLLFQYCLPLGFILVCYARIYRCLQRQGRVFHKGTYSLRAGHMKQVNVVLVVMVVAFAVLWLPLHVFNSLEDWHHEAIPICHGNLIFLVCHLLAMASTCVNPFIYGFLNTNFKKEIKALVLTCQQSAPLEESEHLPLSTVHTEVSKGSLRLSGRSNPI
Take “NPY (human neuropeptide Y) (peptide; modification not given)”: the Y4 RBA is 39 nM. “PYY (human peptide YY) (peptide; modification not given)” returned a Y4 RBA of 4.5 nM. As for “PYY(3-36) (peptide; modification not given)”, the Y4 RBA came to 54 nM.
